Reference: patent EP4803098A1 (Shandong Boan Biotechnology Co., Ltd., dated 2025)
Residue numbers refer to the chain shown, from its start. Read-outs that look alike come from different tables or passages of the source.

T1: GIPR on CHOK1-GIPR/GLP-1R cells (human, UniProt P48546 22-466)
T1 sequence (looked up): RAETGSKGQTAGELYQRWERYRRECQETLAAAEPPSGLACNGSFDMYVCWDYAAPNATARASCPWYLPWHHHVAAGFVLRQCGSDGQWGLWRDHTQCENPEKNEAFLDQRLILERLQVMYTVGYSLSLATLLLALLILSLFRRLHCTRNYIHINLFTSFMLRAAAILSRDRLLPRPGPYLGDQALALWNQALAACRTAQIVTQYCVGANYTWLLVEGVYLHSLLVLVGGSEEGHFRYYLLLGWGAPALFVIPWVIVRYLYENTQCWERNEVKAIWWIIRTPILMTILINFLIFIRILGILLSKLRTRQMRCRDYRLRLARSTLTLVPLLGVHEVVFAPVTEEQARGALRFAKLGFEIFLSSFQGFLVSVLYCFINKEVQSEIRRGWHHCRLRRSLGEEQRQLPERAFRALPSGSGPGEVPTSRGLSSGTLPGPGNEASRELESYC

T2: hGIPR-His protein (human, UniProt P48546 22-138)
T2 chain: T1 sequence (looked up)

T3: mGIPR-Fc protein (mouse, UniProt Q0P543 19-134, limits assumed)
T3 construct: also called mouse GIPR-Fc protein; not shown: Fc part
T3 sequence (looked up): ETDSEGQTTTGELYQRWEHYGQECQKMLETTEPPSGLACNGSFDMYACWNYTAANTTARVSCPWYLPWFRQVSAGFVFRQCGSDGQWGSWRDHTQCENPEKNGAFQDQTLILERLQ

B1: CA360 (antibody, human IgG1, kappa, L234A L235A, V domains shown)
VH: EVQLVQSGAEVKKPGSSVKVSCKASGGTFSGYPINWVRQAPGQGLEWMGRIIPIPGIPNYAQKFQDRVTITADKFANTAYMELSSLRSEDTAVYYCARDPLGPYVFDIWGQGTMVTVSS
VL: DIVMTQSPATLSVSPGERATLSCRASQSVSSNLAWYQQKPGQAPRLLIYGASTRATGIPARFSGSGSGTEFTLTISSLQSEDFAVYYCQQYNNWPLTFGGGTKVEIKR
notes: also called GIPR antibody CA360
B2: 2G10 (antibody, V domains shown)
VH: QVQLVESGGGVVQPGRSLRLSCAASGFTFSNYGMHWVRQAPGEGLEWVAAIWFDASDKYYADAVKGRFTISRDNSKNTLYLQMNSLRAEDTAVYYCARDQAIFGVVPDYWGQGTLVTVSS
VL: EIVMTQSPATLSVSPGERATLSCRASQSVSSNLAWYQQKPGQAPRLLIYGAATRATGIPARVSGSGSGTEFTLTISSLQSEDFAVYYCQQYNNWPLTFGGGTKVEIKR
notes: also called control group 2G10
B3: BA191 (antibody, human IgG1, kappa, L234A L235A, V domains shown)
VH: EVQLVQSGAEVKKPGSSVKVSCKASGGTFSTFSSYAISWVRQAPGQGLEWMGRIIPILGIGNNAQKFQGRVTITADKSTSTAYMELSSLRSEDTAVYYCAREKDWGHFDYWGQGTLVTVSS
VL: DIQMTQSPSSLSASVGDRVTITCRASQGISNYLAWFQQKPGKAPKSLIYAASSLQSGVPSKFSGSGSGTDFTLTISSLQPEDFATYYCQQYNSYPITFGQGTRLEIKR
notes: also called GIPR antibody BA191
B4: CE947 (antibody, human IgG1, kappa, L234A L235A, V domains shown)
VH: EVQLVQSGAEVKKPGSSVKVSCKASGGTFNNYAISWVRQAPGQGLEWMGRIIPFLDIASNAQKFQGKVTITADKSTSTAYMELSSLRSEDTAVYYCAREVDWGWFDSWGQGTLVTVSS
VL: B3 VL with K61R, S77N, Q89L, N92Y, S93D, I96L, Q100G, R103K
notes: also called GIPR antibody CE947
B5: CE560 (antibody, human IgG1, kappa, L234A L235A, V domains shown)
VH: B4 VH with N60Y
VL: IQMTQSPSSLSASVGDRVTITCRASQGISSYLAWYQQKPGKAPKLLIYAASTLQSGVPSRFSGSGSGTDFTLTISSLQPEDFATYYCQQLNSYPLTFGGGTKVEIKR
notes: also called GIPR antibody CE560

Assays:
[1] = molecular target: T1, GIPR on CHOK1-GIPR/GLP-1R cells; assay: cell-based or functional assay
[2] = molecular target: T1, GIPR on CHOK1-GIPR/GLP-1R cells; assay: flow cytometry on CHOK1-GIPR/GLP-1R cells
hGIPR-His protein [3] = molecular target: T2, hGIPR-His protein; assay: BLI (Octet), antibody captured on FAB2G sensor, hGIPR-His in solution
hGIPR-His protein [4] = molecular target: T2, hGIPR-His protein; assay: BLI (Octet), antibody captured on FAB2G sensor, hGIPR-His in solution, 1:1 model
[5] = molecular target: T1, GIPR on CHOK1-GIPR/GLP-1R cells; assay: cell-based or functional assay; remark: listed apart in the source
[6] = molecular target: T1, GIPR on CHOK1-GIPR/GLP-1R cells; assay: flow cytometry on CHOK1-GIPR/GLP-1R cells (run with BA191)
[7] = molecular target: T1, GIPR on CHOK1-GIPR/GLP-1R cells; assay: flow cytometry on CHOK1-GIPR/GLP-1R cells (run with CA360)
[8] = molecular target: T1, GIPR on CHOK1-GIPR/GLP-1R cells; assay: flow cytometry on CHOK1-GIPR/GLP-1R cells (run with CE560)
[9] = molecular target: T1, GIPR on CHOK1-GIPR/GLP-1R cells; assay: flow cytometry on CHOK1-GIPR/GLP-1R cells (run with CE947)
mGIPR-Fc protein = molecular target: T3, mGIPR-Fc protein; assay: ELISA, mGIPR-Fc coated

| Binder | IC50 (µg/mL), cAMP content [1] | EC50 [2] | Maximum binding value (RFU) [2] | Response (hGIPR-His protein [3]) | Kd (hGIPR-His protein [4]) | IC50 (µg/mL), cAMP content [5] | EC50 [6] | EC50 [7] | EC50 [8] | EC50 [9] | binding result (mGIPR-Fc protein) |
| --- | --- | --- | --- | --- | --- | --- | --- | --- | --- | --- | --- |
| B1 | 0.2 µg/mL | 0.328 mg/L | 281000 RFU | 0.246 | 3.07 nM |  |  |  |  |  |  |
| B2 | 0.21 µg/mL |  |  | 0.142 | 12.6 nM | 0.3 µg/mL | 0.151 mg/L | 0.213 mg/L | 0.263 mg/L | 0.213 mg/L |  |
| B3 |  | 0.091 mg/L | 17600 RFU | 0.246 | 4.28 nM | 0.04 µg/mL |  |  |  |  | no binding (tested: starting from 0.2 µg/mL) |
| B4 |  | 0.131 mg/L | 311000 RFU | 0.19 | 1.13 nM | 0.05 µg/mL |  |  |  |  | no binding (tested: starting from 0.2 µg/mL) |
| B5 | 0.14 µg/mL | 0.206 mg/L | 492000 RFU | 0.222 | 2.63 nM |  |  |  |  |  | no binding (tested: starting from 0.2 µg/mL) |
